From patent publication US8809287B2, “Compositions and methods for altering Wnt autocrine signaling” (Icahn School of Medicine at Mount Sinai, priority 2004, dated 2014) come the findings set out here.

Type in all cases: cell-based, human
In assay [1] the test system is cyclin D1. Description: Northern blot of cyclin D1 in MDAMB157 cells. As to conditions: stable expression (data not shown). Here is the method: Alterations in the expression of a number of genes identified as targets of canonical Wnt signaling have been reported, although it should be noted that there is variability among Wnt target genes in different cell systems (Giles et al., (2003). Biochim. Biophys. Acta 1653:1-24). To investigate the effects of FRP1 and DKK1 inhibition on gene expression in MDAMB157 breast tumor cells, Northern blot analysis was performed on representative Wnt transcriptional targets, including Myc (He et al., (1998) Science 281:1509-1512), the LEF-1 transcription factor (Filali et al., (2002) J. Biol. Chem. 277:33398-33410) and the dominant negative helix-loop-helix transcriptional regulator, Id2 (Rockman et al., (2001) J. Biol. Chem. 276:45113-45119).
Total RNAs from MDAMB157 cells exogenously expressing vector alone, FRP1, or DKK1 were extracted using Triazol (Invitrogen), separated by agarose gel electrophoresis (1% agarose gel) and transferred to a nylon membrane (Hybond, Pharmacia). Probes were labeled by the Random Prime Labelling System method (Amersham Biosciences), and hybridization was performed overnight utilizing the Hybrisol I solution (Serologicals Corporation) according to the manufacturer's instructions. Normalization was performed utilizing a commercial human GADPH control probe (BD Biosciences Clontech). Probes were labelled with α-^32P-dCTP. […]

Assay [2] concerns cyclin D1. Description: Northern blot of Cyclin D1 in HCT116 clone. The settings on record: HCT116 wild type allele-containing clone. The text has this: We next assessed the effects of FRP1 inhibition on the expression of Id2, Cyclin D1 and Myc, known targets of Wnt/β-catenin in colorectal cancer (Rockman et al. (2001) J. Biol. Chem. 276:45113-45119; Tetsu and McCormick (1999) Nature 398:422-426; He et al. (1998) Science 281:1509-1512). RNAs were extracted from HCT116 parental cells, and either wild type or mutant β-catenin allele containing clones transfected with either vector control or FRP1-HA using Triazol (Invitrogen). The RNAs were separated by (1%) agarose gel electrophoresis and transferred to a nylon membrane (Hybond®, Pharmacia). Probes were labeled by the Random Prime Labelling System method (Amersham Biosciences), and hybridization was performed overnight utilizing the Hybrisol I solution (Serologicals Corporation) according to the manufacturer's instructions. Normalization was performed utilizing a commercial human GADPH control probe (BD Biosciences Clontech).

Assay [3] relates to TCF dependent transcription. Description: TOP-Glow/FOP-Glow TCF reporter assay in PAI tumor cells. As to conditions: PAI ovarian tumor cells, 48 hours. How it is done:
Wnt signaling activates TCF dependent transcription, which can be monitored by reporters containing TCF responsive elements (Morin et al., (1997) Science 275:1787-1790). TCF responsive elements operably linked to a reporter (TOP-Glow, wild type, or FOP-Glow, mutant) were analyzed for transcriptional activity in PAI tumor cells in the presence or absence of DKK1. Ovarian tumor PAI cells plated at 3×10^5 per well in 6-well plates were co-transfected with 1 μg of either the TOP-glow or FOP-glow plasmids (Upstate Biotechnology, Waltham, Mass.) and 0.001 μg of the Renilla control plasmid (pRL-CMV) utilizing Fugene (Roche) according to the manufacturer's instructions. After 48 hours cells were lysed and analyzed utilizing the Dual Luciferase Reporter Assay system (Promega, Madison, Wis.). […] These findings further established that TCF dependent transcription was constitutively activated in these tumor cells by an autocrine Wnt mechanism.
A general note: In a reporter assay the amount or activity of a reporter protein is the signal.

In assay [4] the test system is uncomplexed β-catenin. Description: Uncomplexed β-catenin in HCC38 and other positive breast cancer cell lines. The settings on record: HCC38 and several positive breast cancer lines; DKK1-containing conditioned media for two hours. Here is the method: β-catenin levels were assessed using the GST-E-cadherin binding assay, which has been previously described (Bafico et al., (1998) Oncogene 16:2819-2825). Briefly, bacterially expressed GST-E-cadherin was purified with glutathione-Sepharose beads and incubated with 1 mg of each cell lysate. The GST-E-cadherin/[…]-catenin complex bound to the beads was recovered by centrifugation and analyzed by SDS-PAGE followed by immunoblotting. The uncomplexed β-catenin was detected using a monoclonal antibody to β-catenin (Transduction Laboratories). Unphosphorylated β-catenin was detected with a monoclonal antibody specific for β-catenin dephosphorylated at residues 27-37 (Alexis, Läufelfingen, Switzerland). FRP1-HA and DKK1-HA were detected with an anti-HA monoclonal antibody (Hybridoma Center, Mount Sinai School of Medicine, New York).
In addition, we have analyzed about 20 additional human breast cancer cell lines for increased levels of uncomplexed β-catenin. Analysis of uncomplexed β-catenin levels was performed as described in Example 3 utilizing 1 mg of total cell lysate. A monoclonal antibody to β-catenin (Transduction Laboratories) was utilized for immunoblotting. We found increased levels of uncomplexed β-catenin in 6 of these cell lines (FIG. 3A, lanes 1, 3, 4 and data not shown). We have also analyzed DKK inhibition of autocrine Wnt signaling in HCC38 breast cancer cells. […]

B1: FRP1: human secreted Frizzled Related Protein 1, Wnt antagonist; expressed from pBabe-derived retrovirus with carboxy-terminal HA tag (protein, UniProt Q8N474 32-314, looked up)
Secreted frizzled-related …: SEYDYVSFQSDIGPYQSGRFYTKPPQCVDIPADLRLCHNVGYKKMVLPNLLEHETMAEVKQQASSWVPLLNKNCHAGTQVFLCSLFAPVCLDRPIYPCRWLCEAVRDSCEPVMQFFGFYWPEMLKCDKFPEGDVCIAMTPPNATEASKPQGTTVCPPCDNELKSEAIIEHLCASEFALRMKIKEVKKENGDKKIVPKKKKPLKLGPIKKKDLKKLVLYLKNGADCPCHQLDNLSHHFLIMGRKVKSQYLLTAIHKWDKKNKEFKNFMKKMKNHECPTFQSVFK
modifications: C-terminal HA tag
notes: human secreted Frizzled Related Protein 1, Wnt antagonist; expressed from pBabe-derived retrovirus with carboxy-terminal HA tag
As to B1, in assay [1], the “levels of cyclin D1” value is listed as “did not observe significant changes”. Besides, the “expression of Cyclin D1” value in assay [2] is “dramatically inhibited”.

B2: DKK1: Dickkopf-1, secreted Wnt antagonist protein that binds Wnt co-receptor LRP6; used purified, in conditioned media or retrovirally expressed with HA tag (protein, UniProt O94907 32-266, looked up)
Dickkopf-related protein 1: TLNSVLNSNAIKNLPPPLGGAAGHPGSAVSAAPGILYPGGNKYQTIDNYQPYPCAEDEECGTDEYCASPTRGGDAGVQICLACRKRRKRCMRHAMCCPGNYCKNGICVSSDQNHFRGEIEETITESFGNDHSTLDGYSRRTTLSSKMYHTKGQEGSVCLRSSDCASGLCCARHFWSKICKPVLKEGQVCTKHRRKGSHGLEIFQRCYCGEGLSCRIQKDHHQASNSSRLHTCQRH
modifications: HA tag in some uses
As to B2, the “levels of cyclin D1” value in assay [1] is recorded as “did not observe significant changes”. In addition, in assay [3], the “level of endogenous TCF dependent signaling” value is reported as “striking reduction”. Besides, the “uncomplexed β-catenin levels” value in assay [4] is “striking reduction”.
